The results in this text go back to article PMC12512739.

The target of test [1] is Annexin A2 (endogenous, PK-15 cells) (pig (endogenous in PK-15)) (UniProt P19620).
Test [2] shares this target. The source holds these as a separate data set.
The target in test [3] is PCV2 virus-like particles (VLPs) assembled from the capsid protein (Cap) (porcine circovirus type 2 (genotype 2d, strain ChenZ-2-1)).
The target in test [4] is Porcine circovirus type 2 (PCV2) virus particles (capsid of Cap) (porcine circovirus type 2 (genotype 2d, strain ChenZ-2-1)).

Sequence of UniProt P19620 (P19620 whole entry): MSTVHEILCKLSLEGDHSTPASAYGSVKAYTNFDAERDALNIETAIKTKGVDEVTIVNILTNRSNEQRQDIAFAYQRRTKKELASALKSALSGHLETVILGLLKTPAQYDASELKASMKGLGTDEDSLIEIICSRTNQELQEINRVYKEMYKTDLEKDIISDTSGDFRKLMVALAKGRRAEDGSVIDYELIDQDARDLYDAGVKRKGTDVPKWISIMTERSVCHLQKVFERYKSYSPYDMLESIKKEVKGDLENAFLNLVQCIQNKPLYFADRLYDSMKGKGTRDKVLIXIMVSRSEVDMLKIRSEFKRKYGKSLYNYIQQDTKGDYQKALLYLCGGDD

Turning to “Porcine circovirus type 2 (PCV2) virus particles (capsid of Cap) (complex)”, the reduction of PCV2 particles attached to PK-15 cells at 4 °C (qPCR) after pretreatment of the cells with ANXA2-specific antibody (30 μg/mL) in test [1] turned out to be 25.2%. Also, in test [2], the decrease in PCV2 infectivity by IFA (Cap fluorescence) in PK-15 cells pretreated with ANXA2-specific polyclonal antibody, against control cells amounted to 30%; the reduction of viral genome copies in PK-15 cells at 36 hpi (qPCR) after pretreatment of the cells with anti-ANXA2 polyclonal antibody at 10 and 30 μg/mL stood at 42.7%.
“recombinant soluble full-length porcine ANXA2 with an N-terminal His-tag (pET-28a(+)) (from UniProt P19620 1-339) (natural protein)” came in with a decrease of PCV2 VLP binding to PK-15 cells at 4 °C (immunofluorescence with anti-Cap antibody, fluorescence intensity) after preincubation of VLPs with rANXA2 (20 μg/mL) in test [3] of 19.4%. This substance also showed an inhibition of PCV2 attachment to PK-15 cells at 4 °C (bound virus by qPCR) after preincubation of PCV2 with rANXA2 (20 μg/mL); blocks PCV2 and cell surface ANXA2 in test [4] of 32.7%.
